In assay [1] the target is heat shock protein 60 (Hsp60), bovine brain (bovine (endogenous in bovine brain)) (UniProt P31081). The experiment in a line: co-IP; active N-SMase fraction (Mono S or Superose 12) from bovine brain, holding both proteins together; anti-Hsp60 or anti-N-SMase2 antibody on Protein A Sepharose, 4 h at 4°C; N-SMase activity of supernatants and immunoprecipitates, immunoblot; with indicated concentrations of Triton X-100 in one panel. In general terms: In western blotting, separated proteins are transferred to a membrane and probed.
UniProt P31081, sequence (P31081 27-573): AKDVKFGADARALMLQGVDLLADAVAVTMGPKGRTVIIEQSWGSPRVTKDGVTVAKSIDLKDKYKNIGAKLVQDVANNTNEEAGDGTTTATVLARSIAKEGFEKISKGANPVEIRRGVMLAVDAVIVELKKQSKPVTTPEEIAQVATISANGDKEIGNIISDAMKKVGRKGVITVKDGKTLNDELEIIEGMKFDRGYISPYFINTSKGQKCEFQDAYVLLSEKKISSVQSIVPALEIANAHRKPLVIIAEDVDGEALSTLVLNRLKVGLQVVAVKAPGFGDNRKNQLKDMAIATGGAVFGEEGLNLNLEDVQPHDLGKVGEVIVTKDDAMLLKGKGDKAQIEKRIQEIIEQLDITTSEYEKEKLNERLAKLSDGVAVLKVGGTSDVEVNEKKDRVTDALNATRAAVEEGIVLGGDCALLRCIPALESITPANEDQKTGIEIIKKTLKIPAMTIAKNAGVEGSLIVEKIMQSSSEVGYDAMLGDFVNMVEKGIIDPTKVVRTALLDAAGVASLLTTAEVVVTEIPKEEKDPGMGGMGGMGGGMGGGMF

Assay [2] has the same target. In words: co-IP; Mono S active fraction from bovine brain, anti-Hsp60 antibody; N-SMase activity recovered in the immunoprecipitates after resuspension in IP buffer (data not shown).

The results in this text go back to paper PMC3686747.

In assay [1], “neutral sphingomyelinase 2 (N-SMase2), bovine brain, purified as N-SMase ε (enzyme)” returned a percent of N-SMase activity precipitated by anti-Hsp60 antibody of 20%. The substance further had a percent of total N-SMase activity recovered in the anti-Hsp60 immunoprecipitates in assay [2] of 10%.
